The supplement of paper PMC10899765

How the values were obtained:
Conditions in all cases: 20 nM; 72 h
[1] = system: MCF10A; test: percent viability (nuclei count relative to siNT); higher = more viable cells
Method: (§1)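 After 72 h, cells were fixed and stained with Hoechst and anti-fibrillarin, and nucleoli per nucleus were counted with CellProfiler. Values are plate-adjusted percent effect for the one-nucleolus and 5+ nucleoli phenotypes, normalised to siNT (0%) and to the positive controls siNOL11 or siKIF11 (100%), as the mean of biological triplicates. Percent viability is the nuclei count relative to siNT.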

[2] = system: MCF10A; test: one-nucleolus phenotype percent effect (relative to siNT 0% and siNOL11 100%); higher = more cells with one nucleolus (ribosome biogenesis inhibition)
Method: as §1

[3] = system: MCF10A; test: 5+ nucleoli phenotype percent effect (relative to siNT 0% and siKIF11 100%); higher = more cells with five or more nucleoli
Method: as §1

Sequence | percent viability [1] [%] | one-nucleolus phenotype percent effect [2] [%] | 5+ nucleoli phenotype percent effect [3] [%]
ACCUUCUUGUAUAAGCACUGUGCUAAA [hsa-miR-1248] | 96.5 | -15.4 | 33.1
ACCUUGCAUCUGCAUCCCCAG [hsa-miR-6841-3p] | 28.6 | 15 | -39.3
ACCUUGCCUUGCUGCCCGGGCC [hsa-miR-1915-5p] | 34.9 | 39.7 | -40.4
ACGCCCUUCCCCCCCUUCUUCA [hsa-miR-1249] | 85.3 | -13.3 | 29.3
ACGGAAUAUGUAUACGGAAUAUA [hsa-miR-3669] | 95.9 | -9.77 | 30.9
ACGGAGACGACAAGACUGUGCUG [hsa-miR-5091] | 32.1 | 3.3 | -11.8
ACGGAUGUUUGAGCAUGUGCUA [hsa-miR-105-3p] | 117 | -17 | 12.2
ACGGCCCAGGCGGCAUUGGUG [hsa-miR-6075] | 87.5 | -5.35 | 5.39
ACGGGCAGGGCAGUGCACCCUG [hsa-miR-7112-5p] | 31.2 | 12.5 | 2.37
ACGGGGAGUCAGGCAGUGGUGGA [hsa-miR-6777-5p] | 28.5 | 32 | -32.1
ACGGGUUAGGCUCUUGGGAGCU [hsa-miR-125b-1-3p] | 53.9 | 13.6 | 15.9
ACGGUGCUGGAUGUGGCCUUU [hsa-miR-1250] | 25 | 57.9 | -44.5
ACGUUGGCUCUGGUGGUG [hsa-miR-1306-3p] | 18.4 | 38.2 | -4.59
ACGUUUGAAUGCUGUACAAGGC [hsa-miR-5707] | 185 | -26.7 | 56.2
ACUAAAGGAUAUAGAAGGUUUU [hsa-miR-4509] | 103 | -25.3 | 5.5
ACUCAAAACCCUUCAGUGACUU [hsa-miR-616-5p] | 93.6 | -11.3 | 21.5
ACUCAAAAGAUGGCGGCACUUU [hsa-miR-371b-5p] | 96.1 | -20.5 | 19.5
ACUCAAAAUGGGGGCGCUUUCC [hsa-miR-373-5p] | 83.7 | -11.8 | 34.3
ACUCAAACUGUGGGGGCACU [hsa-miR-371a-5p] | 79.6 | 3.21 | 15.8
ACUCAGUCAUGGUCAUU [hsa-miR-4264] | 95.1 | -7.28 | 26.3
ACUCAUUCUCCUCUGUCCAG [hsa-miR-6758-3p] | 147 | -26.2 | 81.4
ACUCCAAGAAGAAUCUAGACAG [hsa-miR-5695] | 183 | -26.7 | 39.3
ACUCCAGCCCCACAGCCUCAGC [hsa-miR-766-3p] | 39 | 15.5 | -19.8
ACUCCAGUUUUAGUUCUCUUG [hsa-miR-3925-3p] | 63.4 | -22.1 | 38
ACUCCAUUUGUUUUGAUGAUGGA [hsa-miR-136-5p] | 107 | -13 | 34.2
